{"source": "paper PMC7327498", "about": "“Structural basis of semaphorin‐plexin cis interaction” (The EMBO Journal, 2020)", "key": {"PlexA1‐4": {"target": "T1, PlexA1‐4 (Drosophila melanogaster, UniProt Q9V491 28-730)", "T1 construct": "Plexin A (PlexA), Drosophila melanogaster, domains 1-4 (sema, PSI1, IPT1, PSI2), residues 28–730; also called PlexA domains 1-4; source: HEK 293T, transient transfection, purified (HisTrap, SEC); for crystallisation made with kifunensine, not deglycosylated", "T1 sequence (looked up)": "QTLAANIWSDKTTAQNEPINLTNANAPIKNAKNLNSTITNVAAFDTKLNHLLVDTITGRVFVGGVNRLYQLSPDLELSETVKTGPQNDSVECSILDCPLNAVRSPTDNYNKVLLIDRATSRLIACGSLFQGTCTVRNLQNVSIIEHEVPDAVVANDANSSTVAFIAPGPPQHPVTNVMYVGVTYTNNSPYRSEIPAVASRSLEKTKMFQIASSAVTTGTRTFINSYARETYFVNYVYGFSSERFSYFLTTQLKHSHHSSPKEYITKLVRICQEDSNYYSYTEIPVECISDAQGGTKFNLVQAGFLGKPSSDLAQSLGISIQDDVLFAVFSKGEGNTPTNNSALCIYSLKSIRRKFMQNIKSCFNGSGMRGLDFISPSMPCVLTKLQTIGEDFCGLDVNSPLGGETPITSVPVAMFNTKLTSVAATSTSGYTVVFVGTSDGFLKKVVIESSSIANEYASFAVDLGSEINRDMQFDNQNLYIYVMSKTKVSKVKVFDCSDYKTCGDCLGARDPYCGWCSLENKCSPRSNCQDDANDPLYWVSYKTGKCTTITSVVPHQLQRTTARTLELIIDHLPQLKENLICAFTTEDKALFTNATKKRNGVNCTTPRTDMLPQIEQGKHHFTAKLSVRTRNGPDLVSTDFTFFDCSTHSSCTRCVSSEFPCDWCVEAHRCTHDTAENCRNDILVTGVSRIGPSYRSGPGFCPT", "assay": "SEC-MALS; Superdex 200 10/300, 15 mM HEPES pH 7.8, 150 mM NaCl; single proteins injected at 2.0, 1.0 and 0.5 mg/ml; equimolar mixture of Sema1b1‐2 and PlexA1‐4", "details": "both partners purified"}, "Sema1b_(ecto)‐mutB": {"target": "T2, Sema1b_(ecto)‐mutB (Drosophila melanogaster, UniProt Q7KK54 37-659, loop 350–367 was replaced with 18 alanine residues)", "T2 sequence": "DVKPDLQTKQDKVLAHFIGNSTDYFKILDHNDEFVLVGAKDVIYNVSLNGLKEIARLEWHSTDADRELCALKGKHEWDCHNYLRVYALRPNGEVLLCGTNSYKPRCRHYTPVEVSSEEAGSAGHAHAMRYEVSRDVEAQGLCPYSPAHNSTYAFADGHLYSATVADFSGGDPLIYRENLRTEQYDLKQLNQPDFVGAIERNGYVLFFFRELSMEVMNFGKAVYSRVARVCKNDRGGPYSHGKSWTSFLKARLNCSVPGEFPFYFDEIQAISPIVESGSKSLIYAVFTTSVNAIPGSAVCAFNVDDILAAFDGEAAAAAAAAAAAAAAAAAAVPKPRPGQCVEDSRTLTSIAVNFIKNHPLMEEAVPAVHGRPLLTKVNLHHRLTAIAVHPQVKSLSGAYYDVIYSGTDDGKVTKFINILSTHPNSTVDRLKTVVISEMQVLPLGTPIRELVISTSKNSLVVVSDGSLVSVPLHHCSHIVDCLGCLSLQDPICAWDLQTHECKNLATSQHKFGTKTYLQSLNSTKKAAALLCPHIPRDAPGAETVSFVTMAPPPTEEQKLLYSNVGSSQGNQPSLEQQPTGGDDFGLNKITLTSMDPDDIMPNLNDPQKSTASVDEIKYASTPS", "assay": "MST"}, "Sema1b_(ecto)‐mutA": {"target": "T3, Sema1b_(ecto)‐mutA (Drosophila melanogaster, UniProt Q7KK54 37-659, F203E | Q219R | K223E)", "T3 sequence": "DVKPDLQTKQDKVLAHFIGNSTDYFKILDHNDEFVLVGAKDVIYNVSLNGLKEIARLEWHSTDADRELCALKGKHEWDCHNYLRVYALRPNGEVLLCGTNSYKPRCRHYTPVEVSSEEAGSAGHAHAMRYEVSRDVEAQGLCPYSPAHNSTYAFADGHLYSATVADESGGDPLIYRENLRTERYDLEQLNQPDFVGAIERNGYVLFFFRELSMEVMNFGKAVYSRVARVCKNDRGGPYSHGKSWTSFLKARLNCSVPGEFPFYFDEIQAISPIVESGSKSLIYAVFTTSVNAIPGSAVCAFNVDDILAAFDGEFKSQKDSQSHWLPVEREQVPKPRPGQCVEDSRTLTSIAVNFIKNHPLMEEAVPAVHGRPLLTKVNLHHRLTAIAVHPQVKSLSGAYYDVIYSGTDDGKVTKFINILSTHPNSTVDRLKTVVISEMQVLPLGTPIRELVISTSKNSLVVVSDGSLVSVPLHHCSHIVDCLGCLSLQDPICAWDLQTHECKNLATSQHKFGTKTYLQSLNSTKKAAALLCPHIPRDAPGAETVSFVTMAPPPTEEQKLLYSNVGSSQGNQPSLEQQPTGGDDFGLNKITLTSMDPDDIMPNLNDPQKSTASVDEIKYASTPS", "assay": "MST"}}, "data": [{"binder": "Sema1b1‐2 (domain or fragment, Drosophila melanogaster, UniProt Q7KK54 37-602, looked up, Semaphorin 1b (Sema1b), Drosophila melanogaster, domains 1-2 (sema, PSI), residues 37–602; also called Sema1b sema-PSI fragment; source: HEK 293T, transient transfection, purified (HisTrap, SEC); for crystallisation made with kifunensine and treated with endoglycosidase F1) DVKPDLQTKQDKVLAHFIGNSTDYFKILDHNDEFVLVGAKDVIYNVSLNGLKEIARLEWHSTDADRELCALKGKHEWDCHNYLRVYALRPNGEVLLCGTNSYKPRCRHYTPVEVSSEEAGSAGHAHAMRYEVSRDVEAQGLCPYSPAHNSTYAFADGHLYSATVADFSGGDPLIYRENLRTEQYDLKQLNQPDFVGAIERNGYVLFFFRELSMEVMNFGKAVYSRVARVCKNDRGGPYSHGKSWTSFLKARLNCSVPGEFPFYFDEIQAISPIVESGSKSLIYAVFTTSVNAIPGSAVCAFNVDDILAAFDGEFKSQKDSQSHWLPVEREQVPKPRPGQCVEDSRTLTSIAVNFIKNHPLMEEAVPAVHGRPLLTKVNLHHRLTAIAVHPQVKSLSGAYYDVIYSGTDDGKVTKFINILSTHPNSTVDRLKTVVISEMQVLPLGTPIRELVISTSKNSLVVVSDGSLVSVPLHHCSHIVDCLGCLSLQDPICAWDLQTHECKNLATSQHKFGTKTYLQSLNSTKKAAALLCPHIPRDAPGAETVSFVTMAPPPTEEQKLLYSNVGS", "values": [{"measurement": "stoichiometry N", "setting": "PlexA1‐4", "result": 1}]}, {"binder": "PlexA1‐4‐mVenus (domain or fragment) QTLAANIWSDKTTAQNEPINLTNANAPIKNAKNLNSTITNVAAFDTKLNHLLVDTITGRVFVGGVNRLYQLSPDLELSETVKTGPQNDSVECSILDCPLNAVRSPTDNYNKVLLIDRATSRLIACGSLFQGTCTVRNLQNVSIIEHEVPDAVVANDANSSTVAFIAPGPPQHPVTNVMYVGVTYTNNSPYRSEIPAVASRSLEKTKMFQIASSAVTTGTRTFINSYARETYFVNYVYGFSSERFSYFLTTQLKHSHHSSPKEYITKLVRICQEDSNYYSYTEIPVECISDAQGGTKFNLVQAGFLGKPSSDLAQSLGISIQDDVLFAVFSKGEGNTPTNNSALCIYSLKSIRRKFMQNIKSCFNGSGMRGLDFISPSMPCVLTKLQTIGEDFCGLDVNSPLGGETPITSVPVAMFNTKLTSVAATSTSGYTVVFVGTSDGFLKKVVIESSSIANEYASFAVDLGSEINRDMQFDNQNLYIYVMSKTKVSKVKVFDCSDYKTCGDCLGARDPYCGWCSLENKCSPRSNCQDDANDPLYWVSYKTGKCTTITSVVPHQLQRTTARTLELIIDHLPQLKENLICAFTTEDKALFTNATKKRNGVNCTTPRTDMLPQIEQGKHHFTAKLSVRTRNGPDLVSTDFTFFDCSTHSSCTRCVSSEFPCDWCVEAHRCTHDTAENCRNDILVTGVSRIGPSYRSGPGFCPT", "values": [{"measurement": "Kd", "setting": "Sema1b_(ecto)‐mutB", "result": 74, "unit": "nM"}, {"measurement": "Kd", "setting": "Sema1b_(ecto)‐mutA", "result": 1240, "unit": "nM"}]}]}
